Consider two substances from patent US6649396.

In the assay the target is native fiber receptors. The assay is described as follows: cell-based or functional assay.

Take “recombinant Ad2 knob (from UniProt P03275 388-582)”: the decrease in expression of luciferase after AdCMVLuc infection of mock-transfected HeLa cells and HeLa cells expressing the irrelevant sFv is greater than 95%. Then “recombinant Ad5 knob (from UniProt P11818 386-581)”, with greater than 95%.
